Each block holds one binder with its values, some of them ahead of it.
Columns and labels:
[1] = biological target: T1, replication protein A (RPA): Rfa1(1–621), His6-Rfa2(1–273), Rfa3(1–122) (budding yeast, UniProt P22336 1-621; P26754 1-273; P26755 1-122); test: fluorescence polarisation; 50 nM 5'-fluorescein-labelled DNA in complex with RPA or RPA∆WH, serially diluted Siz2∆CT; 23°C; 20 mM HEPES pH 7.5, 125 mM NaCl, 0.1% Tween-20; apparent Kd, single-site model with ligand depletion; settings: both partners purified
T1 construct: Rfa1 subunit of RPA, budding yeast, residues 1-621, tagless; Rfa2 subunit of RPA, budding yeast, residues 1-273, noncleavable N-terminal hexahistidine tag; Rfa3 subunit of RPA, budding yeast, residues 1-122, tagless; also called wild-type RPA; source: E. coli BL21 (DE3) CodonPlus RIL, co-expressed, purified (Ni-NTA, HiTrap Heparin, Superdex200); not shown: His6, N-terminal, kept; copies: + +
T1 sequence (P22336 whole entry, chain 1 of 3, the tested form may be a part): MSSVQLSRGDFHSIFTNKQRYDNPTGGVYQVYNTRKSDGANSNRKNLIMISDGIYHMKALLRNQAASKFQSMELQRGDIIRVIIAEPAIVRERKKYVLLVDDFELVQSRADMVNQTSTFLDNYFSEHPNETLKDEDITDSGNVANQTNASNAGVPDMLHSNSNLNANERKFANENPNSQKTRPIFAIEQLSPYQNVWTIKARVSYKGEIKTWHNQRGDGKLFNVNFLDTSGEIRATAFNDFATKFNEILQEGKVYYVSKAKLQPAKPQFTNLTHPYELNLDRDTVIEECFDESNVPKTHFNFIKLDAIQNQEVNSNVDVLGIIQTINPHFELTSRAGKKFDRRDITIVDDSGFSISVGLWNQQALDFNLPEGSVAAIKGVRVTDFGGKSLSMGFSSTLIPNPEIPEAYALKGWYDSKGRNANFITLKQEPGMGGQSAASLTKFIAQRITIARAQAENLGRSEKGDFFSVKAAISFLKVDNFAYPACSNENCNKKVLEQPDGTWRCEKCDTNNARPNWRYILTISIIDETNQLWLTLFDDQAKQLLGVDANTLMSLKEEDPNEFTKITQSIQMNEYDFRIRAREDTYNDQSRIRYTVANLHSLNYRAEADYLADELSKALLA
T1 sequence (P26754 whole entry, chain 2 of 3, the tested form may be a part): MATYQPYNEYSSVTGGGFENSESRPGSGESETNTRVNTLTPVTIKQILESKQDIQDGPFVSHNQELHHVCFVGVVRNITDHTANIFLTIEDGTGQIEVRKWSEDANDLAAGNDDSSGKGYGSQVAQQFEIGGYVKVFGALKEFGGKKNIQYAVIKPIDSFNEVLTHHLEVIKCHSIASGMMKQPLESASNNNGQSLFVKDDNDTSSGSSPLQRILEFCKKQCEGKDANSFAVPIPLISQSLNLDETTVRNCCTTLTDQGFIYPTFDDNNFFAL
T1 sequence (P26755 whole entry, chain 3 of 3, the tested form may be a part): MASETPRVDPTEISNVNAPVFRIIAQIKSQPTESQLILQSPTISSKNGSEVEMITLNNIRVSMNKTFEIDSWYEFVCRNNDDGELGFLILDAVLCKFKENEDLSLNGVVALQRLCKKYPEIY

[2] = biological target: T2, RPA reconstituted with ∆WH-Rfa2: Rfa1(1–621), His6-Rfa2(1–205), Rfa3(1–122) (budding yeast, UniProt P22336 1-621; P26754 1-205; P26755 1-122); test: as above; settings: both partners purified
T2 construct: Rfa1 subunit of RPA, budding yeast, residues 1-621, tagless; Rfa2 subunit of RPA, budding yeast, residues 1-205 (winged helix domain removed), noncleavable N-terminal hexahistidine tag; Rfa3 subunit of RPA, budding yeast, residues 1-122, tagless; The purification of this variant is not described on its own; also called RPA∆WH; RPA lacking the WH domain of Rfa2; source: E. coli BL21 (DE3) …
T2 sequence (P22336 whole entry, chain 1 of 3, the tested form may be a part): as the sequence (P22336 whole entry, chain 1 of 3, the tested form may be a part) above
T2 sequence (P26754 1-205, chain 2 of 3): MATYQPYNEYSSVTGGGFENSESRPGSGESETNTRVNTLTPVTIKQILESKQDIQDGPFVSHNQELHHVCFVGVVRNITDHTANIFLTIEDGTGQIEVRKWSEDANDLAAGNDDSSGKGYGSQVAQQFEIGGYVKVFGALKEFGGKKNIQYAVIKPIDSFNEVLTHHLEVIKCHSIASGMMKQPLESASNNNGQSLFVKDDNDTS
T2 sequence (P26755 whole entry, chain 3 of 3, the tested form may be a part): as the sequence (P26755 whole entry, chain 3 of 3, the tested form may be a part) above

[3] = biological target: T1, replication protein A (RPA): …; test: native gel or EMSA; 10 nM 6-FAM-ds20ss32 DNA pre-bound to RPA, RPA∆WH or SUMO-RPA, serially diluted full-length Siz2; 25 min at 23°C; 20 mM HEPES pH 7.5, 125 mM NaCl, 0.1% Tween-20, 5 mM MgCl2; native 6% polyacrylamide gel in 0.5x TBE; apparent Kd; settings: both partners purified
[4] = biological target: T2, RPA reconstituted with ∆WH-Rfa2: …; test: as above; settings: both partners purified
Siz2∆CT = biological target: T3, Siz2∆CT (Saccharomyces cerevisiae? (budding …, UniProt Q12216 1-420)); test: fluorescence polarization; FP: 20 mM HEPES pH 7.5, 125 mM NaCl, 0.1% Tween-20, 23°C, 50 nM DNA (RPA/SUMO-RPA on ss32: 1 nM DNA, plus 5 mM MgCl2, 1 mM DTT); EMSA: same buffer with 5 mM MgCl2 (Fig 8 also 1 mM DTT), 23°C, 6% gel in 0.5x TBE; settings: protein: recombinant; tags: His6-thioredoxin removed with TEV; label: 5' 6-FAM on strand 1; blunt
T3 sequence: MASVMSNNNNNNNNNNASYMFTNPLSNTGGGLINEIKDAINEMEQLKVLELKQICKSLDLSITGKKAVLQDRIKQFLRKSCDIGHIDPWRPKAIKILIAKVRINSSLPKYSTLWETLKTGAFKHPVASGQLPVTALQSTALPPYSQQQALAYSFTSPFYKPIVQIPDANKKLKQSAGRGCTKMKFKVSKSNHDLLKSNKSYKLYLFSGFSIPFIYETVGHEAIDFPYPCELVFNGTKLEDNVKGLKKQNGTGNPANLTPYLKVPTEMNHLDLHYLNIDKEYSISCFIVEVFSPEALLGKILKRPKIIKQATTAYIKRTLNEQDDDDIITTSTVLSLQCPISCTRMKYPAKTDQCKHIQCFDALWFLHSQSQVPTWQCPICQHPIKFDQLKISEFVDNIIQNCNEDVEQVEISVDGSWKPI

RPA (Rfa1/Rfa2/Rfa3) = RPA (Rfa1/Rfa2/Rfa3) (Saccharomyces cerevisiae? (budding …, UniProt P22336;P26754;P26755 1-621;1-273;1-122)); test: fluorescence polarization; 5 mM MgCl2; FP: 20 mM HEPES pH 7.5, 125 mM NaCl, 0.1% Tween-20, 23°C, 50 nM DNA (RPA/SUMO-RPA on ss32: 1 nM DNA, plus 5 mM MgCl2, 1 mM DTT); EMSA: same buffer with 5 mM MgCl2 (Fig 8 also 1 mM DTT), 23°C, 6% gel in 0.5x TBE; settings: protein: recombinant; tags: noncleavable N-terminal His6 on Rfa2; copies: 1;1;1; label: 5' 6-FAM; single strand
Sequence of RPA (Rfa1/Rfa2/Rfa3) (Saccharomyces cerevisiae? (P22336 whole entry, chain 1 of 3): as the sequence (P22336 whole entry, chain 1 of 3, the tested form may be a part) above
Sequence of RPA (Rfa1/Rfa2/Rfa3) (Saccharomyces cerevisiae? (P26754 whole entry, chain 2 of 3): as the sequence (P26754 whole entry, chain 2 of 3, the tested form may be a part) above
Sequence of RPA (Rfa1/Rfa2/Rfa3) (Saccharomyces cerevisiae? (P26755 whole entry, chain 3 of 3): as the sequence (P26755 whole entry, chain 3 of 3, the tested form may be a part) above

B3: 6-FAM-ds20 (dsDNA)
DNA 1: GCTGTAGCTAGTTTTGCTTC
DNA 2: GAAGCAAAACTAGCTACAGC
- binding result (Siz2∆CT): binds

Binder: TTTTTTTTTTTTTTTTTTTTTTTTTTTTTTTT (ssDNA) [6-FAM-ss32 (32dT)]
- Kd (RPA (Rfa1/Rfa2/Rfa3)): < 1 nM

Second part, the binder after the results:

- binding result [1]: binds
- binding result [2]: binds
B1: Siz2(1–420) (domain or fragment, budding yeast, UniProt Q12216 1-420, looked up)
chain: T3 sequence
notes: SUMO E3 ligase Siz2, budding yeast, residues 1-420 (SAP, PINIT and SP-RING domains; C-terminal region removed); also called Siz2∆CT; source: E. coli BL21 (DE3) CodonPlus RIL, purified (Ni-NTA, TEV cleavage, Superdex75); not shown: His6, N-terminal, cleaved; thioredoxin, N-terminal, cleaved

- binding result [3]: binds
- binding result [4]: binds
B2: Siz2(1–726) (enzyme, budding yeast, UniProt Q12216 1-726, looked up)
chain: MASVMSNNNNNNNNNNASYMFTNPLSNTGGGLINEIKDAINEMEQLKVLELKQICKSLDLSITGKKAVLQDRIKQFLRKSCDIGHIDPWRPKAIKILIAKVRINSSLPKYSTLWETLKTGAFKHPVASGQLPVTALQSTALPPYSQQQALAYSFTSPFYKPIVQIPDANKKLKQSAGRGCTKMKFKVSKSNHDLLKSNKSYKLYLFSGFSIPFIYETVGHEAIDFPYPCELVFNGTKLEDNVKGLKKQNGTGNPANLTPYLKVPTEMNHLDLHYLNIDKEYSISCFIVEVFSPEALLGKILKRPKIIKQATTAYIKRTLNEQDDDDIITTSTVLSLQCPISCTRMKYPAKTDQCKHIQCFDALWFLHSQSQVPTWQCPICQHPIKFDQLKISEFVDNIIQNCNEDVEQVEISVDGSWKPIHNSSAVITDTVNQNHSVKNENQGTVKQEQDYDSRNAFDTNLRNGSNHNEPEIISLDSSDDEAFIPASKSFPTHVNPRNDQLRADIFPSESEGSSDYNPNHTSTPKGSPTMDQDNYQDAFQMRSFLNQGATTNINDTPTNNSSINSFVTATNGDSRIFYNRGPSTPLLPAVLQNLTNQTEAQRNPYGPNYNTTAQDRNLLGIEGDLPPIPPVDPNSEAETELPTRTTSAAHLPPYIHVSTSGHGDDGKIRKRRHSNVSIYIPKNPYATLMKRRPQANHAIMNKTLAQTNDFNTSAQDNSEVVDLTSD
notes: SUMO E3 ligase Siz2, budding yeast, full length; cloned as Siz2(1–726), called Siz2(1–727) in the purification paragraph; also called full-length Siz2; Siz2(1–727); source: E. coli BL21 (DE3) CodonPlus RIL, purified (Ni-NTA, HiTrap Heparin, Ulp1 cleavage, Ni-NTA, Superdex200)
